This is an account of results in publication PMC6641210 (2019).

The target in experiment [1] is rabbit chimera of human IgG1 25G1 (human 25G1 variable regions on rabbit IgG heavy chain and rabbit kappa K2 light chain constant regions) (rabbit (Oryctolagus cuniculus)). The experiment can be described thus: SPR; antibody (5.3 nM) captured by its kappa light chain on a Protein L sensor chip, FcγRIIIA ECD injected as analyte; Biacore X100, 25°C, HBS-EP+ (0.01 M HEPES pH 7.4, 0.15 M NaCl, 3 mM EDTA, 0.05% P20); five-point titration in triplicate, 1:1 Langmuir binding model (kinetic). For orientation: Surface plasmon resonance follows binding to a sensor surface in real time, without labels.

Experiment [2] addresses ADCC-enhanced human IgG1 25G1 with S239D/I332E (human). The experiment can be described thus: SPR.
Experiment [3] has as its target chimeric rabbit IgG: variable regions of human 25G1 on rabbit IgG heavy and rabbit kappa (K2) light chain constant regions (human | rabbit (Oryctolagus cuniculus)). In words: SPR; Biacore X100, 25°C, HBS-EP+; antibody captured on a Protein L Sensor Chip, five-point titration of FcγRIIIA ECD in triplicate; steady-state affinity model.
In experiment [4] the target is ADCC-enhanced human IgG1 25G1 with S239D/I332E (human). The experiment can be described thus: SPR; Biacore X100, 25°C, HBS-EP+ (0.01 M HEPES pH 7.4, 0.15 M NaCl, 3 mM EDTA, 0.05% P20); antibody (5.3 nM) captured by its kappa light chain on a Protein L Sensor Chip, FcγRIIIA ECD injected 30 s at 30 µl/min; five-point titration in triplicate; kinetic fit, 1:1 Langmuir binding model.

Experiment [5] has as its target chimeric rabbit IgG: variable regions of human 25G1 on rabbit IgG heavy and rabbit kappa (K2) light chain constant regions (human | rabbit (Oryctolagus cuniculus)). The description is as above.
For experiment [6], the target named is ADCC-enhanced human IgG1 25G1 with S239D/I332E (human). The experiment can be described thus: SPR; Biacore X100, 25°C, HBS-EP+; antibody captured on a Protein L Sensor Chip, five-point titration of FcγRIIIA ECD in triplicate; steady-state affinity model.

human FcγRIIIA-F158 (low affinity allele) extracellular domain fragment (receptor), sequence (chain): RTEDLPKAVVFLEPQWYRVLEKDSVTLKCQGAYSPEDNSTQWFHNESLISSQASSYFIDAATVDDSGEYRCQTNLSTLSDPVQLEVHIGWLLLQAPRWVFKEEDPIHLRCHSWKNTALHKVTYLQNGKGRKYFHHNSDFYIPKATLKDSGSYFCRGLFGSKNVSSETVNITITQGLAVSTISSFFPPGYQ
human FcγRIIIA extracellular domain fragment, low affinity F158 variant, sequence (P08637 17-208, change not shown): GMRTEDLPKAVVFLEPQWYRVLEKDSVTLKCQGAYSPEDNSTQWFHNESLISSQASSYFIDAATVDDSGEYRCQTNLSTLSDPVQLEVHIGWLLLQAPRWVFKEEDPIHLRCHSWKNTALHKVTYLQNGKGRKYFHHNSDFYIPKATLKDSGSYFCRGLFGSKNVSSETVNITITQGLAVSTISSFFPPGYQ

In experiment [1], “human FcγRIIIA extracellular domain fragment, low affinity F158 variant (from UniProt P08637 17-208) (receptor)” had a difference of kinetic KD between hIgG1 and rIgG of 24%.
For orientation: Kd means a measure of binding affinity in units of concentration. The koff is a measure of how fast the partners let go of each other. The term kon denotes the rate constant with which the complex forms. Take “human FcγRIIIA-V158 (high affinity allele) extracellular domain fragment (receptor)”: in experiment [2], the Kd is 1.18 nM, the dissociation rate constant (koff) was 0.01 s⁻¹ and the kon turned out to be 1.01e+07 M⁻¹ s⁻¹.
In the case of “human FcγRIIIA-F158 (low affinity allele) extracellular domain fragment (receptor)”, the Kd in experiment [3] stood at 792 nM. Further, in experiment [4], the Kd is 4.6 nM, the koff was 0.05 s⁻¹ and the kon stood at 1.16e+07 M⁻¹ s⁻¹. Besides, in experiment [5], the Kd is 773 nM, the koff was 0.14 s⁻¹ and the kon was determined as 186000 M⁻¹ s⁻¹.
As to “rabbit FcγRIIIA extracellular domain fragment (receptor)”, the Kd in experiment [6] was 133 nM. In experiment [4], the Kd turned out to be 148 nM, the koff came to 0.27 s⁻¹ and the kon was 1.8e+06 M⁻¹ s⁻¹.
